Source: patent US20250237662A1
Blank lines part the entries; values can stand above or below the binder they belong to.

How the values were obtained:
[1] = target: humanized development candidate monoclonal antibody IgG4 (hIgG4); test: Gyrolab, mAb as capture, hIgG4 40 ng/ml
[2] = target: humanized development candidate monoclonal antibody IgG4 (hIgG4); test: Gyrolab, mAb as capture, hIgG4 5000 ng/ml
[3] = target: humanized development candidate monoclonal antibody IgG4 (hIgG4); test: Gyrolab, mAb as capture, hIgG4 1000 ng/ml
[4] = target: humanized development candidate monoclonal antibody IgG4 (hIgG4); test: Gyrolab, mAb as capture, hIgG4 0.32 ng/ml
[5] = target: humanized therapeutic monoclonal antibody IgG1 (hIgG1); test: direct ELISA, hIgG1 coated, B-cell culture medium
[6] = target: humanized development candidate monoclonal antibody IgG4 (hIgG4); test: direct ELISA, hIgG4 coated, B-cell culture medium
[7] = target: humanized development candidate monoclonal antibody IgG4 (hIgG4); test: Gyrolab, mAb as capture, hIgG4 8 ng/ml
[8] = target: humanized development candidate monoclonal antibody IgG4 (hIgG4); test: Gyrolab, mAb as capture, hIgG4 200 ng/ml
[9] = target: cynomolgus monkey IgG (cynoIgG); test: direct ELISA, cynoIgG coated (hIgG1/CynoIgG screen), B-cell culture medium
[10] = target: cynomolgus monkey IgG (cynoIgG); test: direct ELISA, cynoIgG coated (hIgG4/CynoIgG screen), B-cell culture medium
[11] = target: internal research reagent human Fab (hFab); test: SPR (Biacore T200), mAb captured by anti-rabbit mAb on CM5, antigen 80-0 nM, 1:1 fit
[12] = target: humanized therapeutic monoclonal antibody IgG1 (hIgG1); test: as above
[13] = target: humanized development candidate monoclonal antibody IgG4 (hIgG4); test: as above
[14] = target: humanized development candidate monoclonal antibody IgG4 (hIgG4); test: Gyrolab, mAb as capture, hIgG4 1.6 ng/ml
[15] = target: humanized development candidate monoclonal antibody IgG4 (hIgG4); test: Gyrolab immunoassay quality control, biotinylated 16F5 as capture, hIgG4 in matrix with 4% cynomolgus monkey serum, Alexa Fluor 647 goat anti-human IgG detection
[16] = target: humanized development candidate monoclonal antibody IgG4 (hIgG4); test: Gyrolab, mAb as capture, hIgG4 200 ng/ml, against the blank
[17] = target: humanized development candidate monoclonal antibody IgG4 (hIgG4); test: Gyrolab, mAb as capture, hIgG4 8 ng/ml, against the blank
[18] = target: humanized development candidate monoclonal antibody IgG4 (hIgG4); test: Gyrolab, mAb as capture, hIgG4 1.6 ng/ml, against the blank
[19] = target: humanized development candidate monoclonal antibody IgG4 (hIgG4); test: Gyrolab, mAb as capture, hIgG4 1000 ng/ml, against the blank
[20] = target: humanized development candidate monoclonal antibody IgG4 (hIgG4); test: Gyrolab, mAb as capture, hIgG4 5000 ng/ml, against the blank
[21] = target: humanized therapeutic monoclonal antibody IgG1 (hIgG1); test: ELISA, medium of transfected HEK293F; signal on hIgG1 over signal on cynoIgG
[22] = target: humanized development candidate monoclonal antibody IgG4 (hIgG4); test: Gyrolab, mAb as capture, hIgG4 40 ng/ml, against the blank
[23] = target: humanized development candidate monoclonal antibody IgG4 (hIgG4); test: Gyrolab, mAb as capture, hIgG4 0.32 ng/ml, against the blank
[24] = target: humanized development candidate monoclonal antibody IgG4 (hIgG4); test: ELISA, medium of transfected HEK293F; signal on hIgG4 over signal on cynoIgG
[25] = target: drug: a monoclonal antibody of human IgG4 isotype (PandA assay); test: PandA assay, mAb 1 ug/ml in monkey plasma
[26] = target: drug: a monoclonal antibody of human IgG4 isotype (PandA assay); test: PandA assay, mAb 0.75 ug/ml in monkey plasma
[27] = target: drug: a monoclonal antibody of human IgG4 isotype (PandA assay); test: PandA assay, monkey matrix, mAb 1 ug/ml
[28] = target: drug: a monoclonal antibody of human IgG4 isotype (PandA assay); test: PandA assay, monkey matrix, mAb 0.5 ug/ml
[29] = target: drug: a monoclonal antibody of human IgG4 isotype (PandA assay); test: PandA assay, mAb 0.5 ug/ml in monkey plasma
[30] = target: drug: a monoclonal antibody of human IgG4 isotype (PandA assay); test: PandA assay (PEG precipitation, acid dissociation, MSD plate, sulfo-TAG-drug), mAb 5 ug/ml in monkey plasma
[31] = target: drug: a monoclonal antibody of human IgG4 isotype (PandA assay); test: PandA assay, signal to noise against the negative control
[32] = target: drug: a monoclonal antibody of human IgG4 isotype (PandA assay); test: PandA assay, monkey matrix, mAb 5 ug/ml
[33] = target: drug: a monoclonal antibody of human IgG4 isotype (PandA assay); test: PandA assay, monkey matrix, mAb 0.75 ug/ml

B4: rabbit anti-human IgG monoclonal antibody clone 9E6 (antibody, V domains shown)
VH: QSLEESGGDLVKPGASLTLTCKASGFDFSSSYYMCWVRQAPGRLEWIACIYGGGLSNTYYAGWAKGRFTISKTSSTTVTLQMTSLTVADTATYFCARDAGTSGDYLNLWGPGTLVTVSS
VL: AVVMTQTASPVSGAVGGTVTINCQASQSISSSYLSWYQQKPGQPPKLLIYGASTLASGVPSRFKGSGSGTQFTLTISGVQCDDAATYYCAYDAYRLSSPDNIFGGGTEVVVKG
Av. Resp. [1]: 28.4 | S/B [16]: 35.5 | S/B [17]: 3 | S/B [18]: 1.4 | Av. Resp. [2]: 327 | Av. Resp. [3]: 256 | S/B [19]: 88.2 | S/B [20]: 113 | ELISA signal ratio hIgG1/CynoIgG [21]: 10.2 | S/B [22]: 9.8 | Av. Resp. [4]: 3 | S/B [23]: 1.1 | OD450 [5]: 1.28 OD450 | OD450 [6]: 1.28 OD450 | Av. Resp. [7]: 8.6 | Av. Resp. [8]: 103 | OD450 [9]: 0.14 OD450 | OD450 [10]: 0.146 OD450 | ELISA signal ratio hIgG4/CynoIgG [24]: 9.53 | Kd [11]: 518 pM | koff [11]: 0.00603 s⁻¹ | kon [11]: 1.16e+07 M⁻¹ s⁻¹ | Kd [12]: 426 pM | koff [12]: 6.1e-05 s⁻¹ | kon [12]: 143000 M⁻¹ s⁻¹ | Kd [13]: 196 pM | koff [13]: 2.68e-05 s⁻¹ | kon [13]: 137000 M⁻¹ s⁻¹ | Av. Resp. [14]: 4.1

B5: rabbit anti-human IgG monoclonal antibody clone 11F9 (antibody, V domains shown)
VH: QQQLEESGGGLVQPEGSLTLTCIASGFSFSSSHWICWVRQAPGKGLEWIACMSTSSGSTYDANWAKGRFTISKTSSTTVTLQMTSLTAADTATYFCARDVGGSTTYFDLWGPGTLVTVSS
VL: AYDMTQTPASVSEPVGGTVTIKCQASQSISNELSWYQQKPGQPPKLLIYRASTLASGVPSRFKGSGSGTQFTLTINGVECADAATYYCQQGYSISNVDNTFGGGTEVVVKG
Av. Resp. [1]: 45.1 | Av. Resp. [2]: 330 | Av. Resp. [3]: 289 | Av. Resp. [4]: 3.1 | OD450 [5]: 1.11 OD450 | OD450 [6]: 0.91 OD450 | Av. Resp. [7]: 12.8 | Av. Resp. [8]: 148 | OD450 [9]: 0.089 OD450 | OD450 [10]: 0.092 OD450 | Kd [11]: 1120 pM | Kd [12]: 619 pM | Kd [13]: 279 pM | Av. Resp. [14]: 5

Next, values leading:

Av. Resp. [1]: 22.8 | Av. Resp. [2]: 246 | Av. Resp. [3]: 203 | Av. Resp. [4]: 1.8 | OD450 [5]: 1.15 OD450 | OD450 [6]: 0.954 OD450 | Av. Resp. [7]: 6.2 | Av. Resp. [8]: 82.9 | OD450 [9]: 0.055 OD450 | OD450 [10]: 0.102 OD450 | Kd [11]: 540 pM | Kd [12]: 239 pM | Kd [13]: 67 pM | Av. Resp. [14]: 2.7
B1: rabbit anti-human IgG monoclonal antibody clone 19B1 (antibody, V domains shown)
VH: QEQLVESGGGLVQPEGSLTLTCTASGFSFSDSYYMCWVRQAPGKGLEWIACIYGGTITNTYYASWAKGRFTISKTSSTTVTLQMTSLTAADTATYFCARDLGAAGDAYNLWGPGTLVTVSS
VL: ASDMTQTPASVSEPVGGTVTIKCQASENIYSSLAWYQQKPGQPPKLLIYDASNLASGVPSRFSGSGSGTEFTLTISDLECADAATYYCQCTYRSSSSSYAFGGGTEVVVKG

Av. Resp. [1]: 64.2 | Average Response (HQC, expected conc 750 ng/mL) [15]: 414 | Average Response (LQC, expected conc 40.0 ng/mL) [15]: 70.3 | Average Response (MQC, expected conc 0.600 ng/mL) [15]: 5.85 | Response (HQC, expected conc 750 ng/mL, CD struct C1) [15]: 400 | Response (HQC, expected conc 750 ng/mL, CD struct C2) [15]: 427 | Response (LQC, expected conc 40.0 ng/mL, CD struct C3) [15]: 68.6 | Response (LQC, expected conc 40.0 ng/mL, CD struct C4) [15]: 72 | Response (MQC, expected conc 0.600 ng/mL, CD struct C5) [15]: 5.88 | Response (MQC, expected conc 0.600 ng/mL, CD struct C6) [15]: 5.83 | S/B (HQC, expected conc 750 ng/mL, CD struct C1) [15]: 87.7 | S/B (HQC, expected conc 750 ng/mL, CD struct C2) [15]: 93.6 | S/B (LQC, expected conc 40.0 ng/mL, CD struct C3) [15]: 15 | S/B (LQC, expected conc 40.0 ng/mL, CD struct C4) [15]: 15.8 | S/B (MQC, expected conc 0.600 ng/mL, CD struct C5) [15]: 1.29 | S/B (MQC, expected conc 0.600 ng/mL, CD struct C6) [15]: 1.28 | S/B [16]: 50.5 | S/B [17]: 4.7 | S/B [18]: 1.8 | Av. Resp. [2]: 385 | Av. Resp. [3]: 369 | S/B [19]: 94.4 | S/B [20]: 98.6 | ELISA signal ratio hIgG1/CynoIgG [21]: 5.9 | S/B [22]: 16.4 | Av. Resp. [4]: 4.4 | S/B [23]: 1.1 | OD450 [5]: 1.39 OD450 | OD450 [6]: 1.37 OD450 | Av. Resp. [7]: 18.5 | Av. Resp. [8]: 197 | OD450 [9]: 0.184 OD450 | OD450 [10]: 0.154 OD450 | ELISA signal ratio hIgG4/CynoIgG [24]: 6.33 | Kd [11]: 1930 pM | koff [11]: 0.00584 s⁻¹ | kon [11]: 3.02e+06 M⁻¹ s⁻¹ | Kd [12]: 127 pM | koff [12]: 2.21e-05 s⁻¹ | kon [12]: 173000 M⁻¹ s⁻¹ | Kd [13]: 514 pM | koff [13]: 8.09e-05 s⁻¹ | kon [13]: 157000 M⁻¹ s⁻¹ | Av. Resp. [14]: 7
B2: rabbit anti-human IgG monoclonal antibody clone 16F5 (antibody, V domains shown)
VH: QQQLEESGGGLVKPGGTLTLTCKASGIDFSNYYYMCWVRQAPGKGLELIACIYTGSSGSTWYATWAKGRFTISKTSSTTVTLQMTSLTAADTATYFCARDRDVGSLYDSLDLWGQGTLVTVSP
VL: AYDMTQTPASVEAAVGGTVTINCQASQSINNWLSWYQQKPGQRPKLLIYQASTLASGVSSRFKGSGSGTHFTLTISDLECADAATYYCQQGWSIDDIDNAFGGGTEVVVKG

Av. Resp. [1]: 60.9 | ECL Signal [25]: 320 | ECL Signal [26]: 257 | S/B [16]: 24.8 | S/B [17]: 2.7 | S/B [18]: 1.3 | Av. Resp. [2]: 468 | S/N (monkey) [27]: 2.4 | Av. Resp. [3]: 394 | S/N (monkey) [28]: 1.58 | S/B [19]: 53.1 | S/B [20]: 63.3 | ECL Signal [29]: 171 | ELISA signal ratio hIgG1/CynoIgG [21]: 4.94 | S/B [22]: 8.2 | Av. Resp. [4]: 7.5 | S/B [23]: 1 | ECL Signal [30]: 1550 | OD450 [5]: 1.25 OD450 | OD450 [6]: 1.32 OD450 | Av. Resp. [7]: 20.3 | Av. Resp. [8]: 184 | S/N [31]: 1.8 | OD450 [9]: 0.161 OD450 | S/N (monkey) [32]: 9.76 | OD450 [10]: 0.159 OD450 | S/N (monkey) [33]: 1.92 | ELISA signal ratio hIgG4/CynoIgG [24]: 5.19 | Kd [11]: 591 pM | koff [11]: 0.000531 s⁻¹ | kon [11]: 899000 M⁻¹ s⁻¹ | Kd [12]: 187 pM | koff [12]: 2.52e-05 s⁻¹ | kon [12]: 135000 M⁻¹ s⁻¹ | Kd [13]: 42.9 pM | koff [13]: 5.8e-06 s⁻¹ | kon [13]: 135000 M⁻¹ s⁻¹ | Av. Resp. [14]: 9.8
B3: rabbit anti-human IgG monoclonal antibody clone 11G5 (antibody, V domains shown)
VH: QSLEESGGDLVKPGASLTLTCTASGFSFSSSYYMCWVRQAPGKRLEWIACIYGGGLSNTYYAGWAKGRFTISKTSSTTVTLQMTSLTAADTATYFCARDATSGDYLNLWGPGTLVTVSS
VL: AVVMTQTASPVSGAVGGTVTINCQASQSISASALSWYQQKPGQPPKLLIYAASTLESGVPSRFKGSGSGTQFTLTISGVQCDDAATYYCAYDGYRLSSADNIFGGGTEVVVKG
